Data on one molecule can be found in patent publication US20130071921A1 (Pfizer, published 2013).

Test [1] has as its target T1, recombinant mouse Dkk-2 (R&D systems Cat No. 2435-DK/CF) (mouse, UniProt Q9QYZ8 34-259, limits assumed).
T1 construct: Bought; also called mDkk-2
T1 sequence (looked up): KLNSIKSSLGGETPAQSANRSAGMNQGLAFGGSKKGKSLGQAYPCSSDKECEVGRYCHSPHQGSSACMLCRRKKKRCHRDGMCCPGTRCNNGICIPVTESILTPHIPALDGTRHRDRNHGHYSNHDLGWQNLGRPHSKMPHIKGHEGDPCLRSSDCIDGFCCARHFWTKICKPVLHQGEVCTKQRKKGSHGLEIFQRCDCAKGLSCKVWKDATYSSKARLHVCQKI
Put plainly: ELISA, plate-coated antigen. As to the method: Dkk-1 specific antibodies were detected using the following ELISA based method. rhuDkk-1 protein (R&D systems cat no. 1096 DK/CF) was diluted to 1 ug/ml in coating buffer (Sigma carbonate/bicarbonate coating buffer pH 9.6 Cat No. C-3041 made up according to manufacturers instructions). 100 uls of Dkk-1 was added per well to Nunc Maxisorp 96 well plates and incubated overnight at 4° C. Wells were washed 4× with 250 uls/well of wash buffer (0.05% (v/v) Tween-20 (Sigma Cat no. P2287) in dPBS without Ca/Mg++ (Sigma Cat No. D8537)) then blocked with 200 uls/well of blocking buffer (1% PVA (Sigma cat no. 363170) (weight/volume) in dPBS (Sigma cat no.D8537)) for 2 hrs at room temperature. Blocking buffer was then removed by rapid decanting. […]
(§1) Binding of the test antibody to Dkk was determined by addition of a secondary antibody specific for the antibody species. […] Once developed, the plate absorbance was measured at 405 and 490 nm. Absorbance values were presented as the difference between absorbance at both wavelengths.
The ability of JC18 to bind to other species Dkk proteins was assessed using the ELISA protocol described above with the exception that plates were also coated with recombinant rat Dkk-1(R&D systems Cat No. 4010-DK/CF), mouse Dkk-1 (R&D systems Cat No. 1765-DK/CF), mouse Dkk-2 (R&D systems Cat No. 2435-DK/CF), and mouse Dkk-4 (R&D systems Cat No. 3105-DK/CF).

Test [2] has as its target T2, Recombinant human Dkk-1 (R&D Systems cat no. 1096-DK/CF), 10xHis tag at the C terminal (human, UniProt O94907 32-266).
T2 construct: the actual N-terminus of the purified protein is marked in bold italic after residue 30, but the mark is an image lost in the text; also called rhuDkk-1; hDkk-1
T2 sequence: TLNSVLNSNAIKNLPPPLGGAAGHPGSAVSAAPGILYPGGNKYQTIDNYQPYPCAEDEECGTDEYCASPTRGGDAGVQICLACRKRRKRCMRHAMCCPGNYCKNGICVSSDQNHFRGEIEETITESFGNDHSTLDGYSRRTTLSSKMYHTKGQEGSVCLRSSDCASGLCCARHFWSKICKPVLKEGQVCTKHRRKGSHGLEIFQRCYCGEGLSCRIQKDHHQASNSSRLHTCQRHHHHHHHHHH
Briefly: SPR BIAcore 25C, JC18 captured by anti-mouse IgG, Dkk-1 injected. How it is done: (§2) For this assay, polyclonal anti-mouse IgG was amine-coupled to the BIAcore chip. Anti-Dkk-1 antibody JC18 is at 6.53 μg/ml, and was captured for 1 min at 5 μl/min. A five-fold series dilution of human, mouse or rat Dkk-1 (R&D Systems; from 0.4-250 nM) was injected for 1 min at 50-100 μl/min. Dissociation was monitored for 3-5 min. The chip was regenerated with two 30-sec pulses of 100 mM H₃PO₄.
(In general: SPR reads the build-up and loss of mass on a sensor chip optically.)

Test [3] concerns the target T3, recombinant mouse Dkk-1 (R&D systems Cat No. 1765-DK/CF) (mouse, UniProt O54908 32-272).
T3 construct: Bought
T3 sequence (looked up): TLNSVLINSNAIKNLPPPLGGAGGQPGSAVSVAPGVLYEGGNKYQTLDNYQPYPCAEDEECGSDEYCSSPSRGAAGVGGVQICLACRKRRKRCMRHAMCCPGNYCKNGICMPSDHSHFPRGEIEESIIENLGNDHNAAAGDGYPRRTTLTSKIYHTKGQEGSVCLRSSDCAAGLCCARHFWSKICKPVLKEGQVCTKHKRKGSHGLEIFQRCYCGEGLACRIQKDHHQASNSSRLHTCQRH
The description is as above. As to the method: as §2

Test [4] deals with T4, recombinant rat Dkk-1 (R&D systems Cat No. 4010-DK/CF) (rat).
T4 construct: Bought
Described as above. How it is done: as §2

Test [5] has as its target T2, Recombinant human Dkk-1 (R&D Systems …). Briefly: ELISA, plate coated with human DKK-1 at 1.0 ug/ml, JC18 titrated, OD read. How it is done: Dkk-1 specific antibodies were detected using the following ELISA based method. rhuDkk-1 protein (R&D systems cat no. 1096 DK/CF) was diluted to 1 ug/ml in coating buffer (Sigma carbonate/bicarbonate coating buffer pH 9.6 Cat No. C-3041 made up according to manufacturers instructions). 100 uls of Dkk-1 was added per well to Nunc Maxisorp 96 well plates and incubated overnight at 4° C. Wells were washed 4× with 250 uls/well of wash buffer (0.05% (v/v) Tween-20 (Sigma Cat no. P2287) in dPBS without Ca/Mg++ (Sigma Cat No. D8537)) then blocked with 200 uls/well of blocking buffer (1% PVA (Sigma cat no. 363170) (weight/volume) in dPBS (Sigma cat no.D8537)) for 2 hrs at room temperature. Blocking buffer was then removed by rapid decanting. Antibodies were diluted by consecutive 2-fold serial dilutions in blocking buffer and applied to each plate at 100 ul per well. Plates were incubated for 1 hour at RT and then washed as described above.
as §1
(In general: An ELISA detects its analyte on a solid surface through an enzyme-linked reagent.)

Test [6] has as its target T5, recombinant human Dkk3 (R&D systems Cat No. 1118-DK/CF) (human, UniProt Q9UBP4 22-350).
T5 construct: Bought; also called hDkk-3
Briefly: ELISA, plate coated with human DKK-3 at 1.0 ug/ml, JC18 titrated, OD read.

T5 sequence (Q9UBP4 22-350 limits assumed): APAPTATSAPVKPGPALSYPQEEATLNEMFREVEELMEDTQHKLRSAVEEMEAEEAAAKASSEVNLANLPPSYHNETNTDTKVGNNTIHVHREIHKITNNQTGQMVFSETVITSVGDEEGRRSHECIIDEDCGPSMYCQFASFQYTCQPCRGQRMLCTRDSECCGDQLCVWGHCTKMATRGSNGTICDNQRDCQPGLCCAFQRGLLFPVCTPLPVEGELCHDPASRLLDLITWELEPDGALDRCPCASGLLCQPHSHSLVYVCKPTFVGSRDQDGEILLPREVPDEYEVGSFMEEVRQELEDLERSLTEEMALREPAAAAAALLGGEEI

B1: JC18 wildtype (mouse) monoclonal antibody (antibody, mouse IgG1, V domains shown)
VH: EVKLVESGGGLVKPGGSLKLSCAASGFTFSNYAMSWVRQTPEKRLEWVASISGGGDTYYPDSVKGRFTISRDNVRNILYLQMSSLRSEDTAMYYCATSLENYAMDYWGQGTSITVSS
VL: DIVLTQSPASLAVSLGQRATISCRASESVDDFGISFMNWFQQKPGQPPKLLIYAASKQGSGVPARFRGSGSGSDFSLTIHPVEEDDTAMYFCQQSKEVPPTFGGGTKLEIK
notes: also called muMabJC18; MabJC18
Consider B1, for which the binding result in test [1] and in test [6] was “no binding (tested: 5 ug/ml)” each time. Also, the Kd (as a rule, the equilibrium constant for the complex coming apart) in test [2] was found to be 0.65 nM; in test [3] it was 1.5 nM; in test [4], 0.72 nM. For the same molecule, the values for the koff in test [2], in test [3] and in test [4] were 0.00207 s⁻¹, 0.00254 s⁻¹ and 0.00275 s⁻¹, respectively. Moreover, the association rate constant (kon) (commonly a measure of how fast the partners come together) amounted to 3.18e+06 M⁻¹ s⁻¹ in test [2], 1.74e+06 M⁻¹ s⁻¹ in test [3] and 3.8e+06 M⁻¹ s⁻¹ in test [4]. Moreover, the concentration giving a half-maximal response (EC50 (read off the curve)) (commonly the concentration at which the effect is half-maximal) in test [5] was around 3 ng/mL.
